Test results: the supplement of paper PMC11316812
± gives the standard deviation of the averaged measurements.

How the values were obtained:
MCF7 = assay: percentage of EdU-negative (G0-arrested) nuclei per well, 72 h; higher = more G0 arrest; details: reference: sequence is the full UniProt precursor, the tested protein was the secreted form or ectodomain
hTERT-HMEC = assay: as above; details: reference: sequence is the full UniProt precursor, the tested protein was the secreted form or ectodomain
[1] = protein concentration 0.0225 µM
[2] = protein concentration 0.03125 µM
[3] = protein concentration 0.3125 µM
[4] = protein concentration 0.023015 µM
[5] = protein concentration 0.23015 µM
[6] = protein concentration 0.0357143 µM
[7] = protein concentration 0.357143 µM
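Note: secreted proteins added to cultured cells, EdU pulse at the end, nuclei found by Hoechst imaging, EdU status from nuclear versus surrounding ring intensity ratio, PBS as neutral control.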

MKYLRHRRPNATLILAIGAFTLLLFSLLVSPPTCKVQEQPPAIPEALAWPTPPTRPAPAPCHANTSMVTHPDFATQPQHVQNFLLYRHCRHFPLLQDVPPSKCAQPVFLLLVIKSSPSNYVRRELLRRTWGRERKVRGLQLRLLFLVGTASNPHEARKVNRLLELEAQTHGDILQWDFHDSFFNLTLKQVLFLQWQETRCANASFVLNGDDDVFAHTDNMVFYLQDHDPGRHLFVGQLIQNVGPIRAFWSKYYVPEVVTQNERYPPYCGGGGFLLSRFTAAALRRAAHVLDIFPIDDVFLGMCLELEGLKPASHSGIRTSGVRAPSQRLSSFDPCFYRDLLLVHRFLPYEMLLMWDALNQPNLTCGNQTQIY [Q9Y2A9]
percentage of EdU-negative (MCF7; [1]): 25.7 ± 2% | percentage of EdU-negative (MCF7; protein concentration 0.225 µM): 30.2 ± 0.85% | percentage of EdU-negative (hTERT-HMEC; [1]): 4.326 ± 0.034% | percentage of EdU-negative (hTERT-HMEC; protein concentration 0.225 µM): 7.879 ± 0.065%

MKYTSYILAFQLCIVLGSLGCYCQDPYVKEAENLKKYFNAGHSDVADNGTLFLGILKNWKEESDRKIMQSQIVSFYFKLFKNFKDDQSIQKSVETIKEDMNVKFFNSNKKKRDDFEKLTNYSVTDLNVQRKAIHELIQVMAELSPAAKTGKRKRSQMLFRGRRASQ
percentage of EdU-negative (MCF7; [2]): 39.5 ± 2.2% | percentage of EdU-negative (MCF7; [3]): 42.7 ± 1.8% | percentage of EdU-negative (hTERT-HMEC; [2]): 92.2 ± 1.5% | percentage of EdU-negative (hTERT-HMEC; [3]): 96.92 ± 0.62%

MLALLAASVALAVAAGAQDSPAPGSRFVCTALPPEAVHAGCPLPAMPMQGGAQSPEEELRAAVLQLRETVVQQKETLGAQREAIRELTGKLARCEGLAGGKARGAGATGKDTMGDLPRDPGHVVEQLSRSLQTLKDRLESLEHQLRANVSNAGLPGDFREVLQQRLGELERQLLRKVAELEDEKSLLHNETSAHRQKTESTLNALLQRVTELERGNSAFKSPDAFKVSLPLRTNYLYGKIKKTLPELYAFTICLWLRSSASPGIGTPFSYAVPGQANEIVLIEWGNNPIELLINDKVAQLPLFVSDGKWHHICVTWTTRDGMWEAFQDGEKLGTGENLAPWHPIKPGGVLILGQEQDTVGGRFDATQAFVGELSQFNIWDRVLRAQEIVNIANCSTNMPGNIIPWVDNNVDVFGGASKWPVETCEERLLDL
percentage of EdU-negative (MCF7; [1]): 24.1 ± 0.47% | percentage of EdU-negative (MCF7; protein concentration 0.225 µM): 24.8 ± 0.78% | percentage of EdU-negative (hTERT-HMEC; [1]): 5.346 ± 0.033% | percentage of EdU-negative (hTERT-HMEC; protein concentration 0.225 µM): 6.28 ± 1.3%

MLALLCSCLLLAAGASDAWTGEDSAEPNSDSAEWIRDMYAKVTEIWQEVMQRRDDDGALHAACQVQPSATLDAAQPRVTGVVLFRQLAPRAKLDAFFALEGFPTEPNSSSRAIHVHQFGDLSQGCESTGPHYNPLAVPHPQHPGDFGNFAVRDGSLWRYRAGLAASLAGPHSIVGRAVVVHAGEDDLGRGGNQASVENGNAGRRLACCVVGVCGPGLWERQAREHSERKKRRRESECKAA
percentage of EdU-negative (MCF7; [1]): 23.8 ± 1% | percentage of EdU-negative (MCF7; protein concentration 0.225 µM): 27 ± 0.74% | percentage of EdU-negative (hTERT-HMEC; [1]): 7 ± 3.4% | percentage of EdU-negative (hTERT-HMEC; protein concentration 0.225 µM): 4.98 ± 0.59%

MLALLVLVTVALASAHHGGEHFEGEKVFRVNVEDENHINIIRELASTTQIDFWKPDSVTQIKPHSTVDFRVKAEDTVTVENVLKQNELQYKVLISNLRNVVEAQFDSRVRATGHSYEKYNKWETIEAWTQQVATENPALISRSVIGTTFEGRAIYLLKVGKAGQNKPAIFMDCGFHAREWISPAFCQWFVREAVRTYGREIQVTELLDKLDFYVLPVLNIDGYIYTWTKSRFWRKTRSTHTGSSCIGTDPNRNFDAGWCEIGASRNPCDETYCGPAAESEKETKALADFIRNKLSSIKAYLTIHSYSQMMIYPYSYAYKLGENNAELNALAKATVKELASLHGTKYTYGPGATTIYPAAGGSDDWAYDQGIRYSFTFELRDTGRYGFLLPESQIRATCEETFLAIKYVASYVLEHLY
percentage of EdU-negative (MCF7; [1]): 24.5 ± 1.1% | percentage of EdU-negative (MCF7; protein concentration 0.225 µM): 25.4 ± 0.42% | percentage of EdU-negative (hTERT-HMEC; [1]): 5.24 ± 0.55% | percentage of EdU-negative (hTERT-HMEC; protein concentration 0.225 µM): 5.32 ± 0.42%

MLAPGSSPGQRGRLALQWRQVSWITCWIALYAVEALPTCPFSCKCDSRSLEVDCSGLGLTTVPPDVPAATRTLLLLNNKLSALPSWAFANLSSLQRLDLSNNFLDRLPRSIFGDLTNLTELQLRNNSIRTLDRDLLRHSPLLRHLDLSINGLAQLPPGLFDGLLALRSLSLRSNRLQNLDRLTFEPLANLQLLQVGDNPWECDCNLREFKHWMEWFSYRGGRLDQLACTLPKELRGKDMRMVPMEMFNYCSQLEDENSSAGLDIPGPPCTKASPEPAKPKPGAEPEPEPSTACPQKQRHRPASVRRAMGTVIIAGVVCGVVCIMMVVAAAYGCIYASLMAKYHRELKKRQPLMGDPEGEHEDQKQISSVA [Q8N967]
percentage of EdU-negative (MCF7; [2]): 25.5 ± 0.63% | percentage of EdU-negative (MCF7; [3]): 25.5 ± 2.5% | percentage of EdU-negative (hTERT-HMEC; [2]): 5.33 ± 1% | percentage of EdU-negative (hTERT-HMEC; [3]): 5.93 ± 0.73%

MLAVGCALLAALLAAPGAALAPRRCPAQEVARGVLTSLPGDSVTLTCPGVEPEDNATVHWVLRKPAAGSHPSRWAGMGRRLLLRSVQLHDSGNYSCYRAGRPAGTVHLLVDVPPEEPQLSCFRKSPLSNVVCEWGPRSTPSLTTKAVLLVRKFQNSPAEDFQEPCQYSQESQKFSCQLAVPEGDSSFYIVSMCVASSVGSKFSKTQTFQGCGILQPDPPANITVTAVARNPRWLSVTWQDPHSWNSSFYRLRFELRYRAERSKTFTTWMVKDLQHHCVIHDAWSGLRHVVQLRAQEEFGQGEWSEWSPEAMGTPWTESRSPPAENEVSTPMQALTTNKDDDNILFRDSANATSLPVQDSSSVPLPTFLVAGGSLAFGTLLCIAIVLRFKKTWKLRALKEGKTSMHPPYSLGQLVPERPRPTPVLVPLISPPVSPSSLGSDNTSSHNRPDARDPRSPYDISNTDYFFPR
percentage of EdU-negative (MCF7; [4]): 25.4 ± 3% | percentage of EdU-negative (MCF7; [5]): 24.4 ± 1.3% | percentage of EdU-negative (hTERT-HMEC; [4]): 5.6 ± 1.1% | percentage of EdU-negative (hTERT-HMEC; [5]): 5.05 ± 0.44%

MLCLGWIFLWLVAGERIKGFNISGCSTKKLLWTYSTRSEEEFVLFCDLPEPQKSHFCHRNRLSPKQVPEHLPFMGSNDLSDVQWYQQPSNGDPLEDIRKSYPHIIQDKCTLHFLTPGVNNSGSYICRPKMIKSPYDVACCVKMILEVKPQTNASCEYSASHKQDLLLGSTGSISCPSLSCQSDAQSPAVTWYKNGKLLSVERSNRIVVDEVYDYHQGTYVCDYTQSDTVSSWTVRAVVQVRTIVGDTKLKPDILDPVEDTLEVELGKPLTISCKARFGFERVFNPVIKWYIKDSDLEWEVSVPEAKSIKSTLKDEIIERNIILEKVTQRDLRRKFVCFVQNSIGNTTQSVQLKEKRGVVLLYILLGTIGTLVAVLAASALLYRHWIEIVLLYRTYQSKDQTLGDKKDFDAFVSYAKWSSFPSEATSSLSEEHLALSLFPDVLENKYGYSLCLLERDVAPGGVYAEDIVSIIKRSRRGIFILSPNYVNGPSIFELQAAVNLALDDQTLKLILIKFCYFQEPESLPHLVKKALRVLPTVTWRGLKSVPPNSRFWAKMRYHMPVKNSQGFTWNQLRITSRIFQWKGLSRTETTGRSSQPKEW
percentage of EdU-negative (MCF7; [1]): 26.2 ± 0.97% | percentage of EdU-negative (MCF7; protein concentration 0.225 µM): 24.78 ± 0.22% | percentage of EdU-negative (hTERT-HMEC; [1]): 5.27 ± 0.17% | percentage of EdU-negative (hTERT-HMEC; protein concentration 0.225 µM): 4.77 ± 0.22%

MLCLLLTLGVALVCGVPAMDIPQTKQDLELPKLAGTWHSMAMATNNISLMATLKAPLRVHITSLLPTPEDNLEIVLHRWENNSCVEKKVLGEKTENPKKFKINYTVANEATLLDTDYDNFLFLCLQDTTTPIQSMMCQYLARVLVEDDEIMQGFIRAFRPLPRHLWYLLDLKQMEEPCRF
percentage of EdU-negative (MCF7; [6]): 24.5 ± 2.6% | percentage of EdU-negative (MCF7; [7]): 23 ± 1.3% | percentage of EdU-negative (hTERT-HMEC; [6]): 5.01 ± 0.051% | percentage of EdU-negative (hTERT-HMEC; [7]): 5.65 ± 0.33%
